The target of assay [1] is T1, recombinant human HGF (R&D Systems, Catalog No. 294-HGN-025) (human, UniProt P14210 32-728). The assay is described as follows: cell-based or functional assay.
Assay [2] concerns the target T1, recombinant human HGF (R&D Systems, …). The assay is described as follows: cell-based or functional assay. This is another data set of the same source.
For assay [3] the target is unchanged. The assay is described as follows: SPR, antibody captured by anti-mouse Ig, HGF injected, 25 C. The procedure:
Rabbit anti-mouse immunoglobulins (BIAcore, Catalog No. BR-1005-14) were immobilized on carboxymethylated dextran CM5 sensor chips (BIAcore, Catalog No. BR-1006-68) by amine coupling (BIAcore, Catalog No. BR-1000-50) using a standard coupling protocol according to manufacturer's instructions. The analyses were performed at 25° C. using PBS (GIBCO, Catalog No. 14040-133) containing 0.05% surfactant P20 (BIAcore, Catalog No. BR-1000-54), 2 mg/mL BSA (EMD, Catalog No. 2930), and 10 mg/mL CM-Dextran Sodium salt (Fluka, Catalog No. 86524) as running buffer.
The antibodies were captured in an individual flow cell at a flow rate of 10 μL/min. Injection time was variable for each antibody to yield approximately 20 RU of antibody captured for each cycle. […] The dissociation phase was monitored for 15 or 90 minutes, depending on concentration. The surface then was regenerated with 10 mM Glycine-HCl, pH 1.7 (BIAcore, Catalog No. BR-1003-54) injected for 3 minutes at a flow rate of 60 μL/min before another cycle was initiated.
Kinetic parameters were determined using the kinetic function of the BIAevalutation software with reference subtraction.

Assay [4] addresses hHGF-Fc C561R (recombinant hHGF protein containing a cysteine to arginine substitution at position 561) (human). The assay is described as follows: SPR, antibody immobilized, HGF protein injected, 25 C. The protocol: (§1) Each antibody was immobilized on a carboxymethylated dextran CM5 sensor chip (BIAcore, Catalog No. BR-1006-68) by amine coupling (BIAcore, Catalog No. BR-1000-50) using a standard coupling protocol according to manufacturer's instructions.
(§2) Analyses were performed at 25° C. using PBS (GIBCO, Catalog No. 14040-133) containing 0.05% surfactant P20 (BIAcore, Catalog No. R-1000-54), 2 mg/mL BSA (EMD, Catalog No. 2930) and 10 mg/mL CM-Dextran Sodium salt (Fluka, Catalog No. 86524) as running buffer. […] The resulting binding was determined as resonance units (RU) over baseline 30 seconds after the end of injection. […] Non-specific binding was monitored by comparing binding to a control surface where mouse IgG (Rockland, Catalog No. 010-0102) was immobilized using the same amine coupling procedure.

For assay [5], the target named is T2, recombinant mouse-human-mouse (mhm) chimeric HGF protein containing the human V495-L585 HGF sequence disposed … (mouse-human-mouse chimera, UniProt Q08048 56-728).
T2 construct: CHO supernatant was used; also called mhm chimera (V495-L585); MHM chimera (495-585)
T2 chain: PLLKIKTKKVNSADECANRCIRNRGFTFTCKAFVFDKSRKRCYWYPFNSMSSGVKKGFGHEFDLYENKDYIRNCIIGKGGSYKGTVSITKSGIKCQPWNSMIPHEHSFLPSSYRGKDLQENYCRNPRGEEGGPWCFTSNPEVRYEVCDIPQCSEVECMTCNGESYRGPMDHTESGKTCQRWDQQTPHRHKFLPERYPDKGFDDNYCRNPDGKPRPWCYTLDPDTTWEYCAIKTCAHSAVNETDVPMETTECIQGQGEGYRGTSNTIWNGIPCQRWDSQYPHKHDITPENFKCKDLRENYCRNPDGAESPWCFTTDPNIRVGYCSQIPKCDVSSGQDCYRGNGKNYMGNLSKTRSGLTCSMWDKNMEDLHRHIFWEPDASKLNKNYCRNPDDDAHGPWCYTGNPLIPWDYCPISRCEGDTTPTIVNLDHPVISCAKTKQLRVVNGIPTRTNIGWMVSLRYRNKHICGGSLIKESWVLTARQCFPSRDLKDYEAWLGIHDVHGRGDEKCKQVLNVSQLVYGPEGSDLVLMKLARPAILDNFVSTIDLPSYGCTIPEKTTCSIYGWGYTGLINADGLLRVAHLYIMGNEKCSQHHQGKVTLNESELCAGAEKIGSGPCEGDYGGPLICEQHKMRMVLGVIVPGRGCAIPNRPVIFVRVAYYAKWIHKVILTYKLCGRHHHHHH
Described as above. The protocol:
as §1, §2

Assay [6] deals with hHGF-Fc G555E (recombinant hHGF protein containing a glycine to glutamate substitution at position 555) (human). The assay is described as above. The procedure: as §1, §2
hHGF-Fc G555E (recombinant hHGF protein containing a glycine to glutamate substitution at position 555) (human), sequence (chain, as listed by the source G555E G555E limits assumed): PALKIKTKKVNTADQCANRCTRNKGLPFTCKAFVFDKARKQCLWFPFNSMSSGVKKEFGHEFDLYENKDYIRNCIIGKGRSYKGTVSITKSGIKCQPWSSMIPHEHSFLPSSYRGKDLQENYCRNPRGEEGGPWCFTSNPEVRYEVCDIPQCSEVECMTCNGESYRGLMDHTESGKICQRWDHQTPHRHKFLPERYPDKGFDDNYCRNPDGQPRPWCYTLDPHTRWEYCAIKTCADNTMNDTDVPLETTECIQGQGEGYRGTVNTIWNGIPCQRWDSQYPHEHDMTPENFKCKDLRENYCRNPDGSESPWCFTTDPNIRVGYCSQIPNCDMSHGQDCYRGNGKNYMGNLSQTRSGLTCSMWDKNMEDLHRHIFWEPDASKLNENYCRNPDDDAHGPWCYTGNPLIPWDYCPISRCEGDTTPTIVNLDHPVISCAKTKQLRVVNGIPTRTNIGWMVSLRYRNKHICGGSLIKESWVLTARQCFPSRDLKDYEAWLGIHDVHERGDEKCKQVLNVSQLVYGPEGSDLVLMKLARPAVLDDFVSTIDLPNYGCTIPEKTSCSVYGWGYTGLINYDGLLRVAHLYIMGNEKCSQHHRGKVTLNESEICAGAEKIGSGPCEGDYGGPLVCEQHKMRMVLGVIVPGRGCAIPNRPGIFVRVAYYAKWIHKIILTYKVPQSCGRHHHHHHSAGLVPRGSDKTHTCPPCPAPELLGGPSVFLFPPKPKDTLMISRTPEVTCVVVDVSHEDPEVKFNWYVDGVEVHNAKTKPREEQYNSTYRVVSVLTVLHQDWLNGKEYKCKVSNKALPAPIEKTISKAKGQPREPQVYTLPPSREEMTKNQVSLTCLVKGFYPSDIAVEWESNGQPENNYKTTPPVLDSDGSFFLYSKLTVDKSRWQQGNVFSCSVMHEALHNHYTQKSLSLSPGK
For assay [7], the target named is T3, recombinant mouse HGF (R&D Systems) (mouse, UniProt Q08048 33-728).
T3 construct: Bought protein, construct not described; also called rmHGF (R&D Systems); murine HGF
T3 sequence (Q08048 33-728 limits assumed): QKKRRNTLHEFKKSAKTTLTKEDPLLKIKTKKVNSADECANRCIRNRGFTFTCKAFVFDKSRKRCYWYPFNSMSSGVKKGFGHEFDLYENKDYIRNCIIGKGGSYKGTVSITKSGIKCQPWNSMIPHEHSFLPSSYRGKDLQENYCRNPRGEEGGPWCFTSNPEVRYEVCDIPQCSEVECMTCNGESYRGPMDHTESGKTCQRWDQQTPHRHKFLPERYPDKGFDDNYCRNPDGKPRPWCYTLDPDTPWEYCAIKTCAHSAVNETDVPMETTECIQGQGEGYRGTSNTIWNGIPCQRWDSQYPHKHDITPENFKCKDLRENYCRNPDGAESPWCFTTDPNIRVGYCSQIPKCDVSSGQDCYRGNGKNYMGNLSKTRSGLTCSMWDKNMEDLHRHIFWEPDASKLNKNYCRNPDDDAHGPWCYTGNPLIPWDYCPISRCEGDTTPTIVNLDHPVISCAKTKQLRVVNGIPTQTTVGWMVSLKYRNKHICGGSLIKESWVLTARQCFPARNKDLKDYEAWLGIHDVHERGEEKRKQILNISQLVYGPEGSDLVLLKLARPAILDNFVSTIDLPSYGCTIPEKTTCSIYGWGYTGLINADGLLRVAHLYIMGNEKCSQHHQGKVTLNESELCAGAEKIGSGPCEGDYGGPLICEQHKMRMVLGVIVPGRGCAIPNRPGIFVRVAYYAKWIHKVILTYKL
The description is as above. The protocol: as §1, §2

In assay [8] the target is T1, recombinant human HGF (R&D Systems, …). The assay is described as follows: competition ELISA (DELFIA): antibody inhibits c-Met binding to plate-coated HGF. The protocol:
The plates then were blocked with 200 μL of 5% non-fat dry milk in PBS for 1 hour at room temperature. […] 100 μL of sample per well was transferred to the assay plate and incubated overnight at 4° C.
The resulting plates then were washed three times with PBS-0.1% Tween 20, and incubated for 1 hour at room temperature with Eu-labeled Streptavidin (Wallac, Catalog No. 1244-360) diluted 1:1000 in DELFIA assay buffer (Wallac, Catalog No. 4002-0010). The resulting plates were washed 3 times with DELFIA wash solution (Wallac, Catalog No. 4010-0010) and incubated with 100 μL/well DELFIA enhancement solution (Wallac #4001-0010) for 15 minutes at room temperature with agitation.
The plates were read on Victor³V instrument (Perkin Elmer) using the Europium method.

T1 sequence (P14210 32-728 limits assumed): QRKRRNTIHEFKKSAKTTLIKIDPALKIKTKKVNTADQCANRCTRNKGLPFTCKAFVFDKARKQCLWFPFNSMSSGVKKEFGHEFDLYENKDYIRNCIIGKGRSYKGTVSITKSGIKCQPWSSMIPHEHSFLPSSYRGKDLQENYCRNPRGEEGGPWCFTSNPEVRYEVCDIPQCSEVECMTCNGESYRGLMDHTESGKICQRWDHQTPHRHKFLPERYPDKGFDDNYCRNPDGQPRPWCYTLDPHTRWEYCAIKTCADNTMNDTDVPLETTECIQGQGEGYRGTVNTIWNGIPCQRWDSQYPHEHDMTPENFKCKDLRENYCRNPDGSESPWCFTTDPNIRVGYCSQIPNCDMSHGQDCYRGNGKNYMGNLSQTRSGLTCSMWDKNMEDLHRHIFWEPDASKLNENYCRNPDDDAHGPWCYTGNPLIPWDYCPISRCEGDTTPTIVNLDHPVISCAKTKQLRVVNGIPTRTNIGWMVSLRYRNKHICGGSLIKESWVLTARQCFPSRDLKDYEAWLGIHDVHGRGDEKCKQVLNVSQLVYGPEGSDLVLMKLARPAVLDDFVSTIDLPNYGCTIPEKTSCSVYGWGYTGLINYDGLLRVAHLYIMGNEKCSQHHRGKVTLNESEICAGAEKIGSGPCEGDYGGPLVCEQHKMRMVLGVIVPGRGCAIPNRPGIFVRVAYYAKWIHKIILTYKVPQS
hHGF-Fc C561R (recombinant hHGF protein containing a cysteine to arginine substitution at position 561) (human), sequence (chain, as listed by the source C561R C561R limits assumed): as the sequence (chain, as listed by the source G555E G555E limits assumed) above, with E501G, C507R counted along it

B1: anti-hHGF monoclonal antibody 3B6 (antibody, mouse IgG1, kappa, V domains shown)
VH: QVQLQQSGAELVRPGSSVKISCKASGYVFSSYWMNWVKQRPGQGLEWIGQIYPGDGDSNYNGNFKGKATLTADKSSSTAYMQLSSLTSEDSAVYFCASQLGLRENYFDYWGQGTTLTVSS
VL: DIKMTQSPSSMYASLGERVTITCKASQDIKSYLSWFQQKPGKSPKTLIYRVNRLVDGVPSRFSGSGSGQDSSLTITSLENEDMGIYYCLQYDEFPFTFGGGTKLEIKR
notes: Murine IgG1 kappa from hybridoma
For B1, the “EC50, inhibition of HGF-stimulated c-Met phosphorylation in PC-3 cells, Average of Two Trials” value (“EC50, inhibition” for short) in assay [1] was 1.01 nM. In assay [2], the “IC50, neutralization of HGF stimulated BrdU incorporation in 4 MBr-5 cells” value (shortened to “IC50, neutralization”) was determined as 36.1 nM. Further, the Kd in assay [3] was 0.017 nM. Besides, the koff in assay [3] was found to be 3.9e-05 s⁻¹. The kon in assay [3] amounted to 2e+06 M⁻¹ s⁻¹. In addition, the binding result in assay [4] was “binds”; in assay [5], “no binding”; in assay [6] it was “binds”; in assay [7], “no binding”.

B2: anti-hHGF monoclonal antibody 3D11 (antibody, mouse IgG1, kappa, V domains shown)
VH: QVQLKESGPGLVAPSQSLSITCTVSGFSLTSYSLHWVRQPPGKGLEWLGVIWAGGNTNYNSSLMSRLTIRKDNSKSQVFLKMNSLQTDDTAMYYCARERFAYWGQGTLVTVSA
VL: QIVLTQSPAIMSAYPGEKVTMTCSASSSVSYMHWYQQKSGTSPKRWIYDTSKLASGVPARFSGSGSGTSYSLTISSMEAEDAATYYCQQWSSNPLTFGAGTKLELKR
notes: as for B1
B2: in assay [1], the “EC50, inhibition” value was 2.28 nM. The “IC50, neutralization” value in assay [2] came out at 51.1 nM. In addition, the IC50 in assay [8] turned out to be 5.66 nM. Moreover, the binding result in assay [4] is listed as “binds”; in assay [5], “no binding”; in assay [6], “binds”; in assay [7], “no binding”.

B3: anti-hHGF monoclonal antibody 2F8 (antibody, mouse IgG1, kappa, V domains shown)
VH: QVQLKQSGAELVRPGTSVKMSCKASGYTFTTYYIHWVNQRPGQGLEWIGKIGPGSGSTYYNEMFKDKATLTVDTSSSTAYMQLSSLTSDDSAVYFCARRGLGRGFDYWGQGTTLTVSS
VL: DIVLTQSPASLAVSLGQRATISCKASQSVDYDGNSYINWYQQKPGQPPKVLIYVASNLESGIPARFSGSGSGTDFTLNIHPVEEEDAATYYCQQSIEDPPTFGAGTKLELKR
notes: as for B1
Consider B3, for which the “EC50, inhibition” value in assay [1] came out at 1.39 nM. The “IC50, neutralization” value in assay [2] came to 19.2 nM. In assay [8], the IC50 is 5.36 nM. For the same molecule, the binding result is reported as “binds” in assay [4], “no binding” in assay [5], “binds” in assay [6] and “binds” in assay [7].

B4: anti-hHGF monoclonal antibody 1A3 (antibody, mouse IgG1, kappa, V domains shown)
VH: EVQLVESGGGLVQPGGSLKLSCAASEFTFSNYYMSWVRQTPEKRLQWVAYISPGGGSSYYPASVKGRFTISRDNAKNTLYLQMSSLKSEDTAMYYCARQGDGYYGDYAMDYWGQGTSVTVSS
VL: DIQMTQSPASLSVSVGETVTITCRASENIYSNLAWYQQKQGKSPQLLVYAATNLADGVPSRFSGSGSGTQFSLKINSLQSEDFGTYYCQHFWGTPYTFGGGTKLEIKR
notes: as for B1
On to B4, for which the “EC50, inhibition” value in assay [1] was 0.684 nM. In addition, the “IC50, neutralization” value in assay [2] is 4.69 nM. Also, the Kd in assay [3] worked out at 0.0301 nM. Besides, the koff in assay [3] amounted to 5.2e-05 s⁻¹. Besides, in assay [3], the kon is 1.7e+06 M⁻¹ s⁻¹. In addition, the IC50 in assay [8] turned out to be 5.65 nM. Further, the binding result was “binds” in assay [4], “no binding” in assay [5], “binds” in assay [6] and “no binding” in assay [7].

B5: anti-hHGF monoclonal antibody 3A12 (antibody, mouse IgG1, kappa, V domains shown)
VH: EVQLVESGGGLVQPGGSLKISCAASGFTFSNYFMSWVRQTPEKRLEWVAYISSGGGSTYYPDSVKGRFTISRDNAKNTLYLQMNSLKSEDTAMYYCVRQGDGYYGDYAMDYWGQGTSVTVSS
VL: DIQMTQSPASLSVSVGETVTITCRASENIYINLAWYQQKQGKSPQLLVHAATKLADGVPSRFSGSGSGTQYSLKINSLQSEDFGSYYCQHFWGTPYTFGGGTKLEIKR
notes: as for B1
On to B5, for which, in assay [1], the “EC50, inhibition” value is 2 nM. In assay [2], the “IC50, neutralization” value stood at 30.3 nM. The Kd in assay [3] was 0.103 nM. In addition, the koff in assay [3] turned out to be 0.00016 s⁻¹. In assay [3], the kon came out at 1.6e+06 M⁻¹ s⁻¹. In addition, the IC50 in assay [8] stood at 5.26 nM. Further, the binding result in assay [4] is “binds”; in assay [5] it was “no binding”; in assay [6], “binds”; in assay [7], “no binding”.

For the origin of these results see US20140178935A1 (AVEO PHARMACEUTICALS, published 2014).
